Paper PMC5458116

Tested on: MBP-ZnF4 (ZnF_1012 fused to GCN4-p-LI coiled coil) (synthetic construct)
Experiment: EMSA
Settings: 5 nM DNA, 5 nM protein, 5 mM Tris-HCl pH 8.5, 210 mM NaCl, 4.8% glycerol, 0.05% Tween 20, 8 mg/l BSA, 30 min, room temperature, 5% native PAGE in 0.5x Tris-borate

## CcrM-methylated 152 bp PCR fragment with 2 ZnF binding sites
adenine-N6 methylated, N6-methyladenine at GANTC sites (CcrM in vitro, both strands)
  binding signal (fold weaker than unmethylated DNA (N1)): 70

## unmethylated 152 bp PCR fragment with 2 ZnF binding sites
Unlabelled competitors added
  binding signal (fold preference over methylated DNA (N2)): 70
